Laboratory results taken from publication PMC9727770 (2023).

biological target: RBD of the SARS-CoV-2 L strain spike protein, soluble (SARS-CoV-2 (L strain), UniProt P0DTC2 319-541); experiment: BLI

Binder | Kd [nM]
Regn-10933 (antibody, V domains shown) VH: QVQLVESGGGLVKPGGSLRLSCAASGFTFSDYYMSWIRQAPGKGLEWVSYITYSGSTIYYADSVKGRFTISRDNAKSSLYLQMNSLRAEDTAVYYCARDRGTTMVPFDYWGQGTLVTVSS VL: DIQMTQSPSSLSASVGDRVTITCQASQDITNYLNWYQQKPGKAPKLLIYAASNLETGVPSRFSGSGSGTDFTFTISGLQPEDIATYYCQQYDNLPLTFGGGTKVEIK | 14.4
Eli Lilly Ly-CoV016 (antibody, V domains shown) VH: EVQLVESGGGLVQPGGSLRLSCAASGFTVSSNYMSWVRQAPGKGLEWVSVIYSGGSTFYADSVKGRFTISRDNSMNTLFLQMNSLRAEDTAVYYCARVLPMYGDYLDYWGQGTLVTVSS VL: not shown | 203
Regn-10987 (antibody, V domains shown) VH: QVQLVESGGGVVQPGRSLRLSCAASGFTFSNYAMYWVRQAPGKGLEWVAVISYDGSNKYYADSVKGRFTISRDNSKNTLYLQMNSLRTEDTAVYYCASGSDYGDYLLVYWGQGTLVTVSS VL: QSALTQPASVSGSPGQSITISCTGTSSDVGGYNYVSWYQQHPGKAPKLMIYDVSKRPSGVSNRFSGSKSGNTASLTISGLQSEDEADYYCNSLTSISTWVFGGGTKLTVL | 74.2
